Experimental data as given in patent US20210340238A1, “TGFß1 INHIBITORS AND USE THEREOF” (Scholar Rock, Inc., priority 2018, published 2021).
“Also recorded” adds a separate entry of the source.

Legend:
[1] = tested on: liver fibrosis (pSmad2/3, hydroxyproline, type I collagen); conditions: CDHFD mice, weeks 4-12
Description: The Choline deficient high fat diet (CDHFD) is an established dietary model of Non-Alcoholic steatohepatitis (NASH). In this model, male C57BL/6J mice are fed a choline deficient, 0.1% Methionine, high fat diet for 12 weeks. Three to six weeks after the start of the CDHFD, expression of α-sma protein (a marker for activation of hepatic stellate cells) increases and the development of hepatic fibrosis is accompanied by an increase in the hydroxyproline content accompanied by a rise in intrahepatic collagen synthesis and deposition (Matsumoto et. al, Int J Exp Pathol. 2013 April; 94(2):93-103).
Animals in the test cohorts were on the CDHFD for the duration of the study. A separate cohort of mice were administered a regular chow diet as a study control. […] Antibody test concentrations were as follows: 15 mg/kg, 5 mg/kg or 1.5 mg/kg twice a week (i.e., 30, 10, or 3 mg/kg/week) for a test duration of 8 weeks (i.e., weeks 4 thru 12). An IgG isotype antibody was used as a negative control at 15 mg/kg twice weekly (30 mg/kg/week). Following 8 weeks of dosing, animals were sacrificed and livers collected for analyses.
Serum measurements were also taken to determine the extent of antibody exposure during the study.
TGFβ1 receptor engagement leads to intracellular signaling events including the phosphorylation of Smad2 and Smad3.
Hydroxyproline is a signature amino acid for fibrillar collagens and comprises approximately 13.5% of the protein. […] Hydroxyproline acts as an important diagnostic indicator of the severity of fibrosis.
To assess the levels of type 1 collagen deposition in livers from CDHFD-treated mice, immunohistochemistry (IHC) protocols were developed for anti-mouse type I collagen antibody (rabbit polyclonal; Abcam; ab21286) using the Leica Bond RX staining system. Mouse liver was collected and fixed in 10% neutral buffered formalin (NBF) for 24 hours at room temperature. Fixed livers were then trimmed into 3-5 mm cross sections and stored in 70% ethanol until processed for paraffin infiltration and embedding. Paraffin embedded livers were sectioned at 4 μm and mounted on slides for IHC staining. Type 1 collagen primary antibody was used at a 5 μg/mL final concentration along with a matched isotype primary control (rabbit monoclonal IgG; Cell Signaling Technologies; 3900S). Epitope retrieval was performed with a pH 6 citrate buffer incubated at 100° C. for 20 minutes. […]
Stained slides were sent to HistoTox Labs for imaging with an Aperio AT2 whole slide scanner and collagen staining was analyzed using Visiopharm image analysis software. […] Total collagen positive area was measured using an intensity-based thresholding algorithm which classified each pixel of the image as high positive, medium positive, low positive, or negative staining area.

[2] = tested on: liver fibrosis (liver hydroxyproline); assay: CCl4 model of liver fibrosis; format: in vivo, mouse; conditions: CCl4 mice, 4 weeks
Description: Carbon tetrachloride (CCl4) treatment of mice is a well-characterized model of liver fibrosis. In this model, Balb/C mice were dosed intraperitoneally (i.p.) twice weekly with 2.5 μl of a 20% CCl4 solution in corn oil per gram bodyweight. This CCl4 dosing was maintained throughout the duration of the study(6 weeks). After two weeks of CCl4 dosing, dosing with test articles started. […] After 6 weeks of CCl4 dosing (4 weeks of antibody treatment), mice were sacrificed and liver tissue was collected.
The hydroxyproline assay (see description above) was used to measure fibrosis in liver lysates from this study. […] The treatment effect of both TGFβ1-specific antibodies was similar to that of the pan-TGFβ inhibitor 1D11.

[3] = tested on: TGFβ signaling (Smad2/3 phosphorylation; Col1a1, Col3a1, Fn1); assay: Col4a3−/− genetic model of Alport syndrome (kidney pSmad2/3 ELISA, qPCR); format: in vivo, mouse
Text: The murine Col4a3−/− model is an established genetic model of autosomal recessive Alport syndrome. Alport mice lack a functional collagen 4A3 gene (Col4A3−/−) and therefore cannot form normal type IV collagen trimers, which require α3, α4, and α5 chains. Col4a3−/− mice develop fibrosis in the kidney consistent with renal fibrosis in human patients, including interstitial fibrosis and tubular atrophy, and Col4a3−/− mice develop end-stage renal disease (ESRD) between 10 and 30 week of age, depending on the genetic background of the mouse. The structural and functional manifestation of renal pathology in Col4a3−/− mice, combined with the progression to ESRD make Col4a3−/− mice an ideal model to understand kidney fibrosis. Previous reports point to the importance of the TGFβ signaling pathway in this process, and treatment with either […], a known activator of TGFβ, or with a TGFβ ligand trap has been reported to prevent renal fibrosis and inflammation in Alport mice (Hahm et al. (2007) The American Journal of Pathology, 170(1): 110-125).
F1 offspring from Col4a3+/− males on a 129/Sv genetic background crossed to Col4a3+/− females on a C57/Bl6 genetic were employed for the study.
It is well documented that TGFβ receptor activation leads to a downstream signaling cascade of intra cellular events, including phosphorylation of Smad2/3. […] FIG. 7A provides a graph showing relative ratios of phosphorylated vs. total (phosphorylated and unphospohrylated) Smad2/3.
An IgG was used as negative control in both heterozygous (Col4a3+/−; Het) and knock out (Col4a3−/−; KO) mice. Following six weeks of antibody treatment (12 weeks after birth), animals were sacrificed, and the kidneys were collected for analyses.
To assess the functional effect of TGFβ inhibition, a third study was carried out in the Col4a3−/− model of kidney fibrosis. […] Treatment effect was assessed by gene expression, which was evaluated by quantitative polymerase chain reaction (qPCR) using cDNA generated from the kidneys of mice in this study.

[4] = tested on: Matrix-associated proTGFβ1 vs Cell-associated proTGFβ1; assay: MSD-SET binding, matrix vs cell bias (G/D); design: species or system human; conditions: ratio of cell average KD to ECM average KD
Text: Column (A) of the table provides monoclonal antibodies with discrete amino acid sequences. […] Columns (B), (C), (E) and (F) provide affinities of each of the listed antibodies, measured in KD, towards the antigen complex as indicated, respectively. […] Similarly, Average KD values calculated from (E) and (F) are shown in the corresponding column (G), which collectively represents affinities of the antibodies to cell-surface or cell-associated proTGF complexes. Finally, relative ratios between the average KD values from columns (D) and (G) are expressed as fold bias” in column (H). Thus, the greater the numerical of column (H) is, the greater bias exists for the particular antibody, when comparing binding preferences of the antibody for matrix-associated complexes to cell-surface complexes. This is one way of quantitatively representing and comparing inherent bias of antibodies to their target complexes. Such analyses may be useful in guiding the selection process for a candidate antibody for particular therapeutic use. Select antibodies of the present disclosure, as measured by MSD-SET, show context-bias (i.e., greater than five-fold bias) or unbias (i.e., less than 5-fold bias) toward matrix-associated complexes over cell-associated complexes. […] Without being bound by a particular theory, the differences in the kinetics of the assays and/or differences in the nature of recombinant proteins may account for the noticeable differences seen in Ab19 binding to hGARP complexes observed in the above Octet assay (see Table 6) compared to the below MSD-SET assay (see Table 7 below). For example, the Octet assay measures kinetic on and off rates, while the MSD-SET assay measures binding at equilibrium. In addition, the recombinant antibodies used in the Octet assay were expressed as IgG1 antibodies in yeast, while the antibodies used in the MSD assay were expressed as IgG4 antibodies in mammalian cells.

B1: Ab2: isoform-selective inhibitor of TGFβ1 activation; VH SEQ ID NO: 13, VL SEQ ID NO: 15; human IgG4 (antibody, V domains shown)
VH: EVQLLESGGGLVQPGGSLRLSCAASGFTFADYAMTWVRQAPGKGLEWVSAISGSGAATYFADSVKGRFTISRDNSKNTLYLQMNSLRAEDTAVYYCARVSSGHWDFDYWGQGTLVTVSS
VL: DIQLTQSPSSLSASVGDRVTITCRASQSISSYLNWYQQKPGKAPKLLIYAASNLQSGVPSRFSGSGSGTDFTLTISSLQPEDFATYYCQQTYTVPLTFGGGTKVEIK
modifications: human IgG4 constant regions
- Relative ratio of phosphorylated Smad2/3 in liver lysates (ELISA) ([1]; 15, 5 or 1.5 mg/kg i.p. twice a week): significantly reduced the relative ratio of phosphorylated Smad2/3 compared to IgG control; also recorded: inverse correlation between serum levels of Ab2 and phosphorylated Smad2/3; also recorded: significantly reduces phosphorylation of Smad2/3 as compared to Ab3 and IgG treated mice on CDHFD
- Liver fibrosis as measured by hydroxyproline levels ([1]; i.p. twice a week, vs IgG control): marked reduction in collagen deposition
- Liver hydroxyproline ([2]; high dose 15 mg/kg i.p. twice weekly): statistically significant reduction in liver hydroxyproline
- Liver hydroxyproline ([2]; lower doses 5 or 1.5 mg/kg i.p. twice weekly): trend towards reduced liver hydroxyproline, but these differences are not statistically significant
- Expression of Col1a1, Col3a1 and Fn1 in kidney (qPCR) ([3]; 5 mg/kg i.p. twice a week from week 6 to week 14, Col4a3−/− mice): significantly reduced the expression of Col1a1 and Col3a1; also recorded: Expression of Fn1 showed a similar trend in Ab2-treated Col4a3−/− mice, though this effect was not statistically significant
- Relative ratio of phosphorylated vs. total Smad2/3 in whole kidney lysates ([3]; i.p. twice weekly for six weeks from week 6, Ab3 5 or 1.5 mg/kg, Ab2 1.5 mg/kg, vs IgG treated Col4a3−/− mice): significant reduction in relative phosphorylation of Smad2/3
- Relative ratio of phosphorylated vs. total Smad2/3 in whole kidney lysates ([3]; single 10 mg/kg i.p. dose 48 hours before sacrifice, 9 week old Col4a3−/− mice): sufficient to significantly inhibit pSmad2/3 signaling
- (H) G/D (fold bias) [4]: 8.66 fold
